± gives the standard deviation of the averaged measurements.
B1: library; a variant is named by its letters at N, in order (parent)
chain: GCUGUCACCGAGAAACUGUGAAGUAUAUCUUAAACCUGGGCACUUAAAAGAUAUAUGGAGUUAGUAGUGCAACCUGCUCGGUCUGAUGAGUCCNNNNNNGGACGAAACAGC

Key:
[1] = variants of: B1; assay: FACS-Seq fitted mean relative fluorescence mCherry/BFP without ligand (log10 relative fluorescence); HEK293T; ligand: cyclic di-GMP (c-di-GMP-II aptamer); higher = higher reporter protein expression; details: ligand present: no
Method: (§1)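 Hammerhead (sTRSV) ribozyme switch libraries with a ligand aptamer grafted on stem I and a randomized N4-6 loop II, cloned into the 3' UTR of mCherry and transiently transfected into HEK293T cells; RNA-Seq 72 h post transfection with ligand added 1 h before transfection; RNA read count / plasmid DNA read count normalized to the non-cleaving sTRSVctl (x100), log10; sequences with >100 DNA reads. FACS-Seq: lentiviral library sorted into 6 bins after 48 h ligand, log-normal fit mean of mCherry/BFP scaled to controls. Printed sequences are partial switch sequences.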

[2] = variants of: B1; assay: normalized RNA/DNA level without ligand (relative to sTRSVctl = 100) (log10 (% of sTRSVctl)); HEK293T; ligand: cyclic di-GMP (c-di-GMP-II aptamer); higher = less ribozyme self-cleavage, higher mRNA level; details: reporter: mCherry (pCS4076), ligand present: no
Method: as §1

[3] = variants of: B1; assay: FACS-Seq fitted mean relative fluorescence mCherry/BFP with ligand (log10 relative fluorescence); HEK293T; ligand: cyclic di-GMP (c-di-GMP-II aptamer); ligand concentration (+) FACS-Seq: 1 mM; higher = higher reporter protein expression; details: ligand present: yes
Method: as §1

[4] = variants of: B1; assay: normalized RNA/DNA level with ligand (relative to sTRSVctl = 100) (log10 (% of sTRSVctl)); HEK293T; ligand: cyclic di-GMP (c-di-GMP-II aptamer); ligand concentration (+) RNA-Seq: 1 mM; higher = less ribozyme self-cleavage, higher mRNA level; details: reporter: mCherry (pCS4076), ligand present: yes
Method: as §1

GCUGUCACCGAGAAACUGUGAAGUAUAUCUUAAACCUGGGCACUUAAAAGAUAUAUGGAGUUAGUAGUGCAACCUGCUCGGUCUGAUGAGUCCAACGCUGGACGAAACAGC [AACGCU] was tested, and the “FACS-Seq fitted mean (log10)” value [1] was -0.0259 ± 0.099, the “normalized RNA/DNA level without ligand (log10)” value [2] was 1.704 ± 0.013 and the “FACS-Seq fitted mean (log10)” value [3] was 0.296 ± 0.0034. The “normalized RNA/DNA level with ligand (log10)” value [4] was 1.86 ± 0.076.

GCUGUCACCGAGAAACUGUGAAGUAUAUCUUAAACCUGGGCACUUAAAAGAUAUAUGGAGUUAGUAGUGCAACCUGCUCGGUCUGAUGAGUCCAACGCCGGACGAAACAGC [AACGCC] was tested, and the “FACS-Seq fitted mean (log10)” value [1] was -0.235 ± 0.048, the “normalized RNA/DNA level without ligand (log10)” value [2] was 1.75 ± 0.022 and the “FACS-Seq fitted mean (log10)” value [3] was 0.192 ± 0.046. For the same variant, the “normalized RNA/DNA level with ligand (log10)” value [4] was 1.9 ± 0.15.

With GCUGUCACCGAGAAACUGUGAAGUAUAUCUUAAACCUGGGCACUUAAAAGAUAUAUGGAGUUAGUAGUGCAACCUGCUCGGUCUGAUGAGUCCAACGGAGGACGAAACAGC [AACGGA] the “FACS-Seq fitted mean (log10)” value [1] was -0.525 ± 0.046, the “normalized RNA/DNA level without ligand (log10)” value [2] was 1.32 ± 0.14 and the “FACS-Seq fitted mean (log10)” value [3] was -0.253 ± 0.067. For the same variant, the “normalized RNA/DNA level with ligand (log10)” value [4] was 1.53 ± 0.13.

With GCUGUCACCGAGAAACUGUGAAGUAUAUCUUAAACCUGGGCACUUAAAAGAUAUAUGGAGUUAGUAGUGCAACCUGCUCGGUCUGAUGAGUCCCACGUGGGACGAAACAGC [CACGUG] the “FACS-Seq fitted mean (log10)” value [1] was -0.341 ± 0.18, the “normalized RNA/DNA level without ligand (log10)” value [2] was 1.67 ± 0.019 and the “FACS-Seq fitted mean (log10)” value [3] was -0.148 ± 0.21. For the same variant, the “normalized RNA/DNA level with ligand (log10)” value [4] was 1.84 ± 0.085.

For GCUGUCACCGAGAAACUGUGAAGUAUAUCUUAAACCUGGGCACUUAAAAGAUAUAUGGAGUUAGUAGUGCAACCUGCUCGGUCUGAUGAGUCCUACGCUGGACGAAACAGC [UACGCU], the “FACS-Seq fitted mean (log10)” value [1] was -0.169 ± 0.063, the “normalized RNA/DNA level without ligand (log10)” value [2] was 1.71 ± 0.032 and the “FACS-Seq fitted mean (log10)” value [3] was 0.108 ± 0.051. The “normalized RNA/DNA level with ligand (log10)” value [4] was 1.86 ± 0.098.

With GCUGUCACCGAGAAACUGUGAAGUAUAUCUUAAACCUGGGCACUUAAAAGAUAUAUGGAGUUAGUAGUGCAACCUGCUCGGUCUGAUGAGUCCCACGGAGGACGAAACAGC [CACGGA] the “FACS-Seq fitted mean (log10)” value [1] was -0.398 ± 0.042, the “normalized RNA/DNA level without ligand (log10)” value [2] was 1.48 ± 0.092 and the “FACS-Seq fitted mean (log10)” value [3] was 0.0123 ± 0.14. The “normalized RNA/DNA level with ligand (log10)” value [4] was 1.72 ± 0.06.

For GCUGUCACCGAGAAACUGUGAAGUAUAUCUUAAACCUGGGCACUUAAAAGAUAUAUGGAGUUAGUAGUGCAACCUGCUCGGUCUGAUGAGUCCUACGUGGGACGAAACAGC [UACGUG], the “FACS-Seq fitted mean (log10)” value [1] was -0.864 ± 0.019, the “normalized RNA/DNA level without ligand (log10)” value [2] was 1.69 ± 0.031 and the “FACS-Seq fitted mean (log10)” value [3] was -0.635 ± 0.083. The “normalized RNA/DNA level with ligand (log10)” value [4] was 1.85 ± 0.12.

For GCUGUCACCGAGAAACUGUGAAGUAUAUCUUAAACCUGGGCACUUAAAAGAUAUAUGGAGUUAGUAGUGCAACCUGCUCGGUCUGAUGAGUCCUACGGAGGACGAAACAGC [UACGGA], the “FACS-Seq fitted mean (log10)” value [1] was -1.08 ± 0.21, the “normalized RNA/DNA level without ligand (log10)” value [2] was 1.61 ± 0.053 and the “FACS-Seq fitted mean (log10)” value [3] was -0.994 ± 0.18. The “normalized RNA/DNA level with ligand (log10)” value [4] was 1.76 ± 0.1.

For GCUGUCACCGAGAAACUGUGAAGUAUAUCUUAAACCUGGGCACUUAAAAGAUAUAUGGAGUUAGUAGUGCAACCUGCUCGGUCUGAUGAGUCCCACGCAGGACGAAACAGC [CACGCA], the “FACS-Seq fitted mean (log10)” value [1] was -0.406 ± 0.0063, the “normalized RNA/DNA level without ligand (log10)” value [2] was 1.61 ± 0.04 and the “FACS-Seq fitted mean (log10)” value [3] was -0.00856 ± 0.11. The “normalized RNA/DNA level with ligand (log10)” value [4] was 1.79 ± 0.11.

In the case of GCUGUCACCGAGAAACUGUGAAGUAUAUCUUAAACCUGGGCACUUAAAAGAUAUAUGGAGUUAGUAGUGCAACCUGCUCGGUCUGAUGAGUCCAACGAUGGACGAAACAGC [AACGAU], the “FACS-Seq fitted mean (log10)” value [1] is reported as -0.207 ± 0.075, the “normalized RNA/DNA level without ligand (log10)” value [2] is reported as 1.57 ± 0.052 and the “FACS-Seq fitted mean (log10)” value [3] is reported as 0.0583 ± 0.17. For the same variant, the “normalized RNA/DNA level with ligand (log10)” value [4] was 1.76 ± 0.096.

With GCUGUCACCGAGAAACUGUGAAGUAUAUCUUAAACCUGGGCACUUAAAAGAUAUAUGGAGUUAGUAGUGCAACCUGCUCGGUCUGAUGAGUCCCACUAAGGACGAAACAGC [CACUAA] the “FACS-Seq fitted mean (log10)” value [1] was -0.523 ± 0.058, the “normalized RNA/DNA level without ligand (log10)” value [2] was 1.3 ± 0.16 and the “FACS-Seq fitted mean (log10)” value [3] was -0.243 ± 0.011. For the same variant, the “normalized RNA/DNA level with ligand (log10)” value [4] was 1.48 ± 0.13.

In the case of GCUGUCACCGAGAAACUGUGAAGUAUAUCUUAAACCUGGGCACUUAAAAGAUAUAUGGAGUUAGUAGUGCAACCUGCUCGGUCUGAUGAGUCCGACGAUGGACGAAACAGC [GACGAU], the “FACS-Seq fitted mean (log10)” value [1] is reported as -0.37 ± 0.031, the “normalized RNA/DNA level without ligand (log10)” value [2] is reported as 1.59 ± 0.021 and the “FACS-Seq fitted mean (log10)” value [3] is reported as -0.0677 ± 0.044. For the same variant, the “normalized RNA/DNA level with ligand (log10)” value [4] was 1.74 ± 0.14.

With GCUGUCACCGAGAAACUGUGAAGUAUAUCUUAAACCUGGGCACUUAAAAGAUAUAUGGAGUUAGUAGUGCAACCUGCUCGGUCUGAUGAGUCCGACGGAGGACGAAACAGC [GACGGA] the “FACS-Seq fitted mean (log10)” value [1] was -0.135 ± 0.078, the “normalized RNA/DNA level without ligand (log10)” value [2] was 1.47 ± 0.078 and the “FACS-Seq fitted mean (log10)” value [3] was 0.0761 ± 0.072. The “normalized RNA/DNA level with ligand (log10)” value [4] was 1.63 ± 0.076.

Reference: the supplement of paper PMC6757056
